Experiments:
amyloid β peptide = test: Two-compartment membrane experiment, degradation of amyloid β peptide; type: biochemical; details: degradation in one compartment connected through a membrane
Method: An experiment is performed to investigate the possibility to remove amyloid β peptide from one compartment by degradation in another compartment connected through a membrane. A similar experiment was conducted using an antibody as an amyloid β peptide agent. The experiment is described by DeMattos et al., (PNAS, 2001). By degrading the amyloid β peptide with neprilysin and/or NEP-Fc in one compartment the concentration of amyloid β peptide in the other compartment is decreased. Importantly, neprilysin or NEP-Fc cannot cross the membrane due to its high molecular weight (161.000 Da and 211.000 Da, respectively).

Ab1-42 = details: purified Neprilysin; Howell et al., 1995; cited from earlier work
[1] = test system: amyloid β peptide1-42 (Aβ42); test: Degradation of Aβ1-42 in guinea pig plasma by neprilysin; type: biochemical; details: 5 μg/ml neprilysin, 0-360 minutes at 37° C.
Method: (§1) Degradation of amyloid β peptide1-40 (Aβ40) and amyloid β peptide1-42 (Aβ42) by neprilysin was investigated using heparinized plasma from male Dunkin Hartley guinea pigs, weighing 250-300 g (HBLidköping ka). Blood was withdrawn from anaesthetized guinea pigs by heart puncture. The blood were collected into prechilled heparin-plasma tubes and centrifuged for 10 min at 4° C. at 3000×g within 20 minutes of sampling. Plasma samples were transferred to pre-chilled polypropylene tubes and immediately frozen on dry ice and stored at −70° C. prior to use. The experiments were performed on a pool of plasma from 5-6 guinea pigs. […] A final concentration of 4.7 mM EDTA was added into the tubes before the amount of Aβ1-40 or Aβ1-42 was analyzed by using commercial ELISA kits obtained from Biosource (Aβ1-40) or Innogenetics (Aβ1-42).

[2] = test system: fluorogenic peptide substrate V-Mca-Arg-Pro-Gly-Phe-Ser-Ala-Phe-Lys(Dnp)-OH; test: Neprilysin enzyme activity FRET assay; type: biochemical; details: purification with addition of 200 μM ZnCl2 versus without
Method: Neprilysin is affinity purified directly from the culture supernatants. Soluble Neprilysin is purified using biotinylated anti-neprilysin antibody (R&D Systems) bound to […] sepharose (GE Healthcare). 14 μg biotinylated anti-neprilysin antibody (R&D systems) was added to 140 μl streptavidin sepharose slurry (GE Healthcare) and incubated during gentle mixing for 2 hours, in room temperature. The sepharose was washed twice and resuspended in 140 μl PBS. The sepharose slurry with bound anti-neprilysin antibody, was added to 10 ml culture supernatant and the sample was incubated for 5 hours at 4° C. After incubation, the sepharose was washed once with PBS and resuspended in 1200 μl 50 mM Tris-HCl, pH 7.5, 150 mM NaCl. […] The sepharose was pelleted and the concentration of purified protein in the supernatant was measured by absorbance at 280 nm. […] The Neprilysin enzymatic activity is determined in a fluorescence resonance energy transfer (FRET) assay. […] Following addition of all components to wells, plate was immediately placed into a fluorescent plate reader (Ascent) and signal was recorded for every minute for 20 minutes at the excitation 340 nm and emission 405 nm. The activity of enzyme was evaluated by calculating the velocity of reaction-Slope coefficient=Σ ΔRFU/Δt. […]

[3] = test system: amyloid β peptide1-40 (Aβ40); test: Degradation of Aβ1-40 in guinea pig plasma by neprilysin; type: biochemical
Method: as §1

amyloid β1-40 peptide = test: Degradation of amyloid β1-40 peptide by soluble Neprilysin in a buffer system; type: biochemical; details: Neprilysin 1.8 μg/ml; Amyloid β1-40 peptide (1 nM); 3 hours incubation at 37° C.
Method: Following incubation, 50 μl of antibodies solution containing anti-Aβ40 (final concentration 0.125 μg/ml; Biosource) and Biotinylated 6E10 (final concentration 0.125 μg/ml; Signet) antibodies was added to each well. Plate was incubated at RT for 3 h. Following incubation, 50 μl of detection mixture of Dynabeads M280 (Dynal Biotech ASA) and secondary antibody Ru-GαR (final concentration 0.132 μg/ml) was added to all wells. Plate was incubated on a shaker at RT for 1 h and results were recorded on IGEN/Bio […]8 analyser. Amyloid β1-40 peptide degradation by Neprilysin was calculated as a percentage of Amyloid β1-40 peptide left after incubation in the presence of Neprilysin compared to the amyloid β1-40 peptide concentration in the absence of Neprilysin.

- Activity of purified protein with versus without added zinc [2]: no difference in activity
B1: Neprilysin: Aβ-degrading Zn-metallopeptidase; soluble extracellular domain (SEQ ID NO 1-4), commercial (R&D Systems) or produced in-house (protein, UniProt P08473 52-750, looked up)
extracellular domain: YDDGICKSSDCIKSAARLIQNMDATTEPCTDFFKYACGGWLKRNVIPETSSRYGNFDILRDELEVVLKDVLQEPKTEDIVAVQKAKALYRSCINESAIDSRGGEPLLKLLPDIYGWPVATENWEQKYGASWTAEKAIAQLNSKYGKKVLINLFVGTDDKNSVNHVIHIDQPRLGLPSRDYYECTGIYKEACTAYVDFMISVARLIRQEERLPIDENQLALEMNKVMELEKEIANATAKPEDRNDPMLLYNKMTLAQIQNNFSLEINGKPFSWLNFTNEIMSTVNISITNEEDVVVYAPEYLTKLKPILTKYSARDLQNLMSWRFIMDLVSSLSRTYKESRNAFRKALYGTTSETATWRRCANYVNGNMENAVGRLYVEAAFAGESKHVVEDLIAQIREVFIQTLDDLTWMDAETKKRAEEKALAIKERIGYPDDIVSNDNKLNNEYLELNYKEDEYFENIIQNLKFSQSKQLKKLREKVDKDEWISGAAVVNAFYSSGRNQIVFPAGILQPPFFSAQQSNSLNYGGIGMVIGHEITHGFDDNGRNFNKDGDLVDWWTQQSASNFKEQSQCMVYQYGNFSWDLAGGQHLNGINTLGENIADNGGLGQAYRAYQNYIKKNGEEKLLPGLDLNHKQLFFLNFAQVWCGTYRPEYAVNSIKTDVHSPGNFRIIGTLQNSAEFSEAFHCRKNSYMNPEKKCRVW
modifications: extracellular domain
- Concentration of amyloid β peptide in the other compartment (amyloid β peptide): decreased
- Sites at which amyloid β peptide is cleaved in vitro (Ab1-42): five sites
- Degradation of Aβ1-42 over time [1]: time-dependent manner
- Degradation of Aβ1-40 versus dose ([3]; 0-20 μg/ml neprilysin, 210 minutes at 37° C.): dose dependent manner
- Degradation of Aβ1-40 over time ([3]; 5 μg/ml neprilysin, 0-360 minutes at 37° C.): time-dependent manner
- Amyloid β1-40 peptide degraded (amyloid β1-40 peptide): 88%
